Patent CN107759691A (HANGZHOU SHANGJIAN BIOTECHNOLOGY CO LTD, dated 2018)
Values belong to the binder of their own block, whether it stands above or below them.

Legend:
[1] = target: T1, 人AXL蛋白胞外段-人IgG1Fc段融合蛋白 (AXL-Fc) (human, UniProt P30530 26-451); assay: ELISA, AXL-Fc coated at 1μg/ml, antibody titrated, OD450
T1 construct: extracellular domain; Expressed in CHO-K1 cells; also called 靶抗原AXL-Fc; not shown: human IgG1 Fc fragment
T1 sequence (looked up): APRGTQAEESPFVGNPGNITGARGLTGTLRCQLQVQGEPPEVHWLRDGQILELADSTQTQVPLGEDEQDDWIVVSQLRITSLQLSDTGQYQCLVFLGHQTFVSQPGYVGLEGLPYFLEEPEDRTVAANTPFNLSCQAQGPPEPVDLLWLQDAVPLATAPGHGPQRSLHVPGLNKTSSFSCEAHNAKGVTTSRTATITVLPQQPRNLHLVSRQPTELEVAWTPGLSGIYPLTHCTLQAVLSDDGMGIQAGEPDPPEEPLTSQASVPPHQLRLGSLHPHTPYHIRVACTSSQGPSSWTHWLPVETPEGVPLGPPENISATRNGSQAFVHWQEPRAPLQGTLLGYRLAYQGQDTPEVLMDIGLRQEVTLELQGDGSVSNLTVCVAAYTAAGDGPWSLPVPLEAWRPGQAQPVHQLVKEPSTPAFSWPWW

BSA(BOVOGEN) = target: T2, BSA(BOVOGEN) (UniProt P02769 25-607); assay: ELISA, protein coated at 1μg/ml, C3D3 detected with HRP goat anti-human IgG
T2 construct: Control coating
T2 sequence (P02769 25-607 limits assumed): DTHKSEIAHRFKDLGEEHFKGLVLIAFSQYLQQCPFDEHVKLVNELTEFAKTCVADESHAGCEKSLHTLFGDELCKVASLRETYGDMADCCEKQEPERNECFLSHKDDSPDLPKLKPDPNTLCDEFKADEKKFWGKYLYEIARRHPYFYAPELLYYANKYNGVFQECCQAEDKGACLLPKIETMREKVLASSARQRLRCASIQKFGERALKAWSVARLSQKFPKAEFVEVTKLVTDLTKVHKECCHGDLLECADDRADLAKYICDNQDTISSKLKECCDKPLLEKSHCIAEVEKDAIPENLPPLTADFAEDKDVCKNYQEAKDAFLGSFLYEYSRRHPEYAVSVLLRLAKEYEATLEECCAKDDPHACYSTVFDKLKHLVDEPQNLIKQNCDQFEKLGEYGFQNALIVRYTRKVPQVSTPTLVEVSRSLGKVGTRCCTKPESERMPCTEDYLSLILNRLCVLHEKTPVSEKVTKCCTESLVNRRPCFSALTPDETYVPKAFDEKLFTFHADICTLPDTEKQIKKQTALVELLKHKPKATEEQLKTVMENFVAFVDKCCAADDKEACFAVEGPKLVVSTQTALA

A549细胞表面AXL = target: T3, A549细胞表面AXL (UniProt P30530 26-894, limits assumed); assay: flow cytometry on A549 cells, C3D3 diluted to 20μg/ml and mixed with an equal volume of cells, PE mouse anti-human IgG
T3 construct: whole, on cells; Endogenous AXL on A549 cells, flow cytometry; also called AXL on A549 cells
T3 sequence (looked up): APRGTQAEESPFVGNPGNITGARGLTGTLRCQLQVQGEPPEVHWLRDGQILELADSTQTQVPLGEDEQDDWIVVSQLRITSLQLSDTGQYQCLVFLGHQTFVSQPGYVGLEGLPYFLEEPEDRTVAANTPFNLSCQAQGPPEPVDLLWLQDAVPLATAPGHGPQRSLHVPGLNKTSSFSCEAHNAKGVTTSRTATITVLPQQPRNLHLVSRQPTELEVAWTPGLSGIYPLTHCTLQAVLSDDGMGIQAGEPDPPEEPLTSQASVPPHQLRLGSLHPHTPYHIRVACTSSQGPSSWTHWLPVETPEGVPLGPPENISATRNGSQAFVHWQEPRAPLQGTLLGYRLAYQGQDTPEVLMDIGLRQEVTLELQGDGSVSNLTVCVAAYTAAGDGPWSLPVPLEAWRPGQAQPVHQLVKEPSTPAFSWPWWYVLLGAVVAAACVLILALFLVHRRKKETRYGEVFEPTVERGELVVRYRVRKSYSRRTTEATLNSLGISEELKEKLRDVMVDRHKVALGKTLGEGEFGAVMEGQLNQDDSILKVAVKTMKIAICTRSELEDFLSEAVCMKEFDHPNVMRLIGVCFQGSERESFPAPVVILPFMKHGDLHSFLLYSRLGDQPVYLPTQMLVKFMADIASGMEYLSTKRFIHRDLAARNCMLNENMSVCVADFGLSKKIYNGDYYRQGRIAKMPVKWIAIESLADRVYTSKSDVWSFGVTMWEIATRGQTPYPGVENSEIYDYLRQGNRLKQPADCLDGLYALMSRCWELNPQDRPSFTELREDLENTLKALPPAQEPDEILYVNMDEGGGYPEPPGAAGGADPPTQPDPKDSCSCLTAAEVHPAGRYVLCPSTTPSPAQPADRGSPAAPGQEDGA

binding result [1]: binds
B1: 3D3抗体 (antibody, V domains shown)
VH: EVKLLESGGGLVQPEGSLKLSCVASGFDFRRYWMSWVRQAPGKGLEWIGEINPAGSTINQTPSLKDKFIISRDNAKNTLYLQMSKVRSEDTALYYCVRLSVVFYYYGMDYWGQGTSVTVSS
VL: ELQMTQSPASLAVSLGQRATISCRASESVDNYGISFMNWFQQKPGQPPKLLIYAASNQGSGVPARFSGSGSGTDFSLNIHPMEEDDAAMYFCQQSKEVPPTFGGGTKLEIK
notes: also called 3D3 antibody

binding result [1]: binds | binding result (BSA(BOVOGEN)): no binding | binding result (A549细胞表面AXL): binds
B2: C3D3(Chimeric 3D3)抗体 (antibody, human IgG1, kappa, V domains shown)
VH: B1 VH
VL: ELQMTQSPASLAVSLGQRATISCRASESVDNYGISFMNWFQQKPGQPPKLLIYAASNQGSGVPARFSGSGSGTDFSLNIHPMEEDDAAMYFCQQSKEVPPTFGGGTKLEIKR
notes: Copies of 2 follow from the whole IgG format, not from a printed number; also called C3D3 antibody
